Target: GST-Rac1A, active (GTPγs-bound), P34144
Test: pull-down (GST-Rac1A), immunoblot quantification
Conditions: chain shown with the change, mean ± SEM, n = 3, parent: 1.9% ± 0.9% SEM

B1: GFP-WASP (Dictyostelium Wiskott-Aldrich syndrome protein, wild type) I173A; F179A (protein)
chain: MGSPTISDQEKSQVAFIAGSSSDIHSTTVARLYEGRQGRWEFMAVGIVSVVSNRVDKTNYIKVFDLKANYRIIFEQEIYDTFEFQKQRDFFFAFEGDSCVYGLSFADVTEAAEFYGQLLNCKQGNIGKTAAINPNTSSTKITASTPAPKVEKKKEKKGFMSKFFSSEEKDLEASAPTNAKHESHIGWDPENGFDIKNIPPDWRKLFQSAGIKKSELKNAETAQFIVNIIGEQMVGGSAPPPTQPGRSAPPAPPSSNQPGRSAPPPPPSVGKSAPPPPPPSHKTPAAPPSGGGAPPPPPPPPPPSSGPPPPPPPMASAPPSSGGGGASGGGRNDLLASIRSGASLKAVDKTNPLPDIQSLGNEGSRSLADTLAAAMANRRGGMREDDEEDDDDDDEWSDY
- response (% binding to GTPγS-loaded Rac1A): 0.1

Reference: paper PMC6926487
